Test results as given in paper doi:10.1101/2023.06.19.545293 (2023).

How the values were obtained:
[1] = molecular target: T1, ZnF domain of A. thaliana SPL5 (Ser60-Leu127) (A. thaliana, UniProt Q9S758 60-127); test: ITC; 25 °C, repeat 2
T1 chain: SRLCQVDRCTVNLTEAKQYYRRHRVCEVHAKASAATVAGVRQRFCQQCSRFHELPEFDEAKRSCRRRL

[2] = molecular target: T1, ZnF domain of A. thaliana SPL5 …; test: ITC; 25 °C, repeat 1

B1: SAP05 (mature, Ala33-Lys135) of Aster Yellows phytoplasma strain Witches Broom (natural protein)
chain: APNEEFVGDMRIVNVNLSNIDILKKHETFKKYFDFTLTGPRYNGNIAEFAMIWKIKNPPLNLLGVFFDDGTRDDEDDKYILEELKQIGNGAKNMYIFWQYEQK
Kd [1]: 388 nM | Kd [2]: 510 nM
